Experimental data as given in IntAct's records for PubMed 16977309.

How the values were obtained:
gga3_human GGA3 = target: T1, gga3_human GGA3 (UniProt Q9NZ52)
T1 sequence: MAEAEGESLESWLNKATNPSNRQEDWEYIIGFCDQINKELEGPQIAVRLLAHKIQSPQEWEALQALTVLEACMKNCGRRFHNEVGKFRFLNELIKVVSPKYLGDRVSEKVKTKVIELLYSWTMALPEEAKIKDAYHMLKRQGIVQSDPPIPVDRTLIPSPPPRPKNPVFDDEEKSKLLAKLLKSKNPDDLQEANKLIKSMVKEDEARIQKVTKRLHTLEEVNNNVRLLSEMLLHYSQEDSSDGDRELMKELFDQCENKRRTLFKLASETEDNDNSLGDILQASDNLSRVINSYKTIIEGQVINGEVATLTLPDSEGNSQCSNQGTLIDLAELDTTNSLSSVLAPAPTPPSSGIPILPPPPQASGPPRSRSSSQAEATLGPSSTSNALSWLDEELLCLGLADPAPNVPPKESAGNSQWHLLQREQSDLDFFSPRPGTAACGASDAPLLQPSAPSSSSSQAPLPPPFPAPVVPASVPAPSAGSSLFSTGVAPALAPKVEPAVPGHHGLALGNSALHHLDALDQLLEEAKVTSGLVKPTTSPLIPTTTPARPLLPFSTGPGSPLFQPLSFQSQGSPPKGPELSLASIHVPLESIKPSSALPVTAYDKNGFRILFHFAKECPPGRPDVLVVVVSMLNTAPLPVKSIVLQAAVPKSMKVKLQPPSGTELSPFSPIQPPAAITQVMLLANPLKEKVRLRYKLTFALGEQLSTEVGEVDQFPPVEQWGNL

csk21_rat Csnk2a1 = csk21_rat Csnk2a1 (UniProt P19139)
Chain of csk21_rat Csnk2a1 (P19139 whole entry, looked up): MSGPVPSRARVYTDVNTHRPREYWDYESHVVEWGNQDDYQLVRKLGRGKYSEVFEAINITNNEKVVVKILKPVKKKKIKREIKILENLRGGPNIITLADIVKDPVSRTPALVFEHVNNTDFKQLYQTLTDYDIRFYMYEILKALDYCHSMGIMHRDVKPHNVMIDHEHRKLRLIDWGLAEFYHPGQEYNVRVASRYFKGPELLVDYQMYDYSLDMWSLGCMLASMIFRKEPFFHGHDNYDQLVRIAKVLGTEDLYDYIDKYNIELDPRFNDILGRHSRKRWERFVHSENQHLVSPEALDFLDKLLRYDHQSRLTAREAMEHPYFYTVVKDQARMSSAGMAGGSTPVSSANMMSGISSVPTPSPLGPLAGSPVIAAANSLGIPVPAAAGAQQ

csk21_human CSNK2A1 = csk21_human CSNK2A1 (UniProt P68400)
Chain of csk21_human CSNK2A1 (P68400 whole entry, looked up): as the sequence (P19139 whole entry, looked up) above, with S335G, A337S, G338S, A340P, S378P, I381M counted along it

csk2b_human CSNK2B = csk2b_human CSNK2B (UniProt P67870)
Chain of csk2b_human CSNK2B (P67870 whole entry): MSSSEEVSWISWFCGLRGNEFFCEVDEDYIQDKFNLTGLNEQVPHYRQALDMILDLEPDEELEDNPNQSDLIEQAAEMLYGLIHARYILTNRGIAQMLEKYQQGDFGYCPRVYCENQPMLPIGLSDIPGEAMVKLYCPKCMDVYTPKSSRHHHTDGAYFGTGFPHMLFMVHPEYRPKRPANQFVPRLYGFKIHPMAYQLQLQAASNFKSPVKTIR

effect of a mutation on the interaction (gga3_human GGA3)	effect of a mutation on the interaction (csk21_rat Csnk2a1)	effect of a mutation on the interaction (csk21_human CSNK2A1)	effect of a mutation on the interaction (csk2b_human CSNK2B)	Substance
disrupting interaction	–	–	–	Phosphofurin acidic cluster sorting protein 1 (Homo sapiens) (from UniProt Q6VY07) K249W
–	disrupting interaction strength	disrupting interaction	disrupting interaction	Phosphofurin acidic cluster sorting protein 1 (Homo sapiens) (from UniProt Q6VY07) R196A;R197A;K198A;R199A;Y200A
disrupting interaction	–	–	–	Phosphofurin acidic cluster sorting protein 1 (Homo sapiens) (from UniProt Q6VY07) Y251A
